*1 amine or outer side, *2 acyl side, *3 side chain or, on linkers, in order; H or OH if unused. Where no end group is shown, it is not given here. Side-chain parts run from the residue outwards. [ ]: non-standard residue; d: D form. The star is where a group is joined. γGlu = O=C(O)[C@H](CCC(=O)[*:2])N[*:1]; Palmitoyl = CCCCCCCCCCCCCCCC(=O)*; Aib = CC(C)(N)C(=O)O
Key:
[1] = target: human GLP-1 receptor (human, UniProt P43220 24-463); assay: cell-based or functional assay
[2] = target: human glucagon receptor (human, UniProt P47871 26-477); assay: cell-based or functional assay
human glucagon receptor, sequence (P47871 26-477): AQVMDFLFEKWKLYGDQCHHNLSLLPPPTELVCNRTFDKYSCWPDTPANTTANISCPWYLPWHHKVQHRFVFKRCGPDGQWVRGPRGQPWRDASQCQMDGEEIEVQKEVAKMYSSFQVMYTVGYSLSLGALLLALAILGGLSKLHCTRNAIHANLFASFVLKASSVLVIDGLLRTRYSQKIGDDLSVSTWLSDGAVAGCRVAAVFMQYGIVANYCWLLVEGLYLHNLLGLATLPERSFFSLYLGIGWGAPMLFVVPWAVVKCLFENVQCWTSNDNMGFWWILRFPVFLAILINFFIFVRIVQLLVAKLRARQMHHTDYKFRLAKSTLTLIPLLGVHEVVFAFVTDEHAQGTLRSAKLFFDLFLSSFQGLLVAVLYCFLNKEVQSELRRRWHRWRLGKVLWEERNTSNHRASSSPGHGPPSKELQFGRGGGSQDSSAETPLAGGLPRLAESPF

Binder | EC50 hGLP-1R (cAMP formation) [1] [nM] | EC50 hGlucagonR (cAMP formation) [2] [nM]
H[dS]QGTFTSDLSKQMDSRRAQDFIEWLKSGGPSSGAPPPSK([γGlu-Palmitoyl])-NH2 (N-terminus assumed; SMILES CCCCCCCCCCCCCCCC(=O)N[C@@H](CCC(=O)NCCCC[C@H](NC(=O)[C@H](CO)NC(=O)[C@@H]1CCCN1C(=O)[C@@H]1CCCN1C(=O)[C@@H]1CCCN1C(=O)[C@H](C)NC(=O)CNC(=O)[C@H](CO)NC(=O)[C@H](CO)NC(=O)[C@@H]1CCCN1C(=O)CNC(=O)CNC(=O)[C@H](CO)NC(=O)[C@H](CCCCN)NC(=O)[C@H](CC(C)C)NC(=O)[C@H](Cc1c[nH]c2ccccc12)NC(=O)[C@H](CCC(=O)O)NC(=O)[C@@H](NC(=O)[C@H](Cc1ccccc1)NC(=O)[C@H](CC(=O)O)NC(=O)[C@H](CCC(N)=O)NC(=O)[C@H](C)NC(=O)[C@H](CCCNC(=N)N)NC(=O)[C@H](CCCNC(=N)N)NC(=O)[C@H](CO)NC(=O)[C@H](CC(=O)O)NC(=O)[C@H](CCSC)NC(=O)[C@H](CCC(N)=O)NC(=O)[C@H](CCCCN)NC(=O)[C@H](CO)NC(=O)[C@H](CC(C)C)NC(=O)[C@H](CC(=O)O)NC(=O)[C@H](CO)NC(=O)[C@@H](NC(=O)[C@H](Cc1ccccc1)NC(=O)[C@@H](NC(=O)CNC(=O)[C@H](CCC(N)=O)NC(=O)[C@@H](CO)NC(=O)[C@@H](N)Cc1c[nH]cn1)[C@@H](C)O)[C@@H](C)O)[C@@H](C)CC)C(N)=O)C(=O)O) [SEQ ID NO: (65)] | 0.015 | 0.0057
H[dS]QGTFTSDLSKQMDSRRAQDFIEWLKNTGPSSGAPPPSK([γGlu-Palmitoyl])-NH2 (N-terminus assumed; SMILES CCCCCCCCCCCCCCCC(=O)N[C@@H](CCC(=O)NCCCC[C@H](NC(=O)[C@H](CO)NC(=O)[C@@H]1CCCN1C(=O)[C@@H]1CCCN1C(=O)[C@@H]1CCCN1C(=O)[C@H](C)NC(=O)CNC(=O)[C@H](CO)NC(=O)[C@H](CO)NC(=O)[C@@H]1CCCN1C(=O)CNC(=O)[C@@H](NC(=O)[C@H](CC(N)=O)NC(=O)[C@H](CCCCN)NC(=O)[C@H](CC(C)C)NC(=O)[C@H](Cc1c[nH]c2ccccc12)NC(=O)[C@H](CCC(=O)O)NC(=O)[C@@H](NC(=O)[C@H](Cc1ccccc1)NC(=O)[C@H](CC(=O)O)NC(=O)[C@H](CCC(N)=O)NC(=O)[C@H](C)NC(=O)[C@H](CCCNC(=N)N)NC(=O)[C@H](CCCNC(=N)N)NC(=O)[C@H](CO)NC(=O)[C@H](CC(=O)O)NC(=O)[C@H](CCSC)NC(=O)[C@H](CCC(N)=O)NC(=O)[C@H](CCCCN)NC(=O)[C@H](CO)NC(=O)[C@H](CC(C)C)NC(=O)[C@H](CC(=O)O)NC(=O)[C@H](CO)NC(=O)[C@@H](NC(=O)[C@H](Cc1ccccc1)NC(=O)[C@@H](NC(=O)CNC(=O)[C@H](CCC(N)=O)NC(=O)[C@@H](CO)NC(=O)[C@@H](N)Cc1c[nH]cn1)[C@@H](C)O)[C@@H](C)O)[C@@H](C)CC)[C@@H](C)O)C(N)=O)C(=O)O) [SEQ ID NO: (71)] | 0.0056 | –
H[dS]QGTFTSDLSKQMDSRRAQDFIEWLKNAGPSSGAPPPSK([γGlu-Palmitoyl])-NH2 [SEQ ID NO: (67)] | 0.0215 | –
HGEGTFTSDLSKQMDSRRAQDFIEWLKNGGPSSGAPPPS-NH2 [SEQ ID NO: (4)] | 0.0174 | 565
H[dS]QGTFTSDLSKQMESRRAQDFIEWLKNAGPSSGAPPPSK([γGlu-Palmitoyl])-NH2 (N-terminus assumed; SMILES CCCCCCCCCCCCCCCC(=O)N[C@@H](CCC(=O)NCCCC[C@H](NC(=O)[C@H](CO)NC(=O)[C@@H]1CCCN1C(=O)[C@@H]1CCCN1C(=O)[C@@H]1CCCN1C(=O)[C@H](C)NC(=O)CNC(=O)[C@H](CO)NC(=O)[C@H](CO)NC(=O)[C@@H]1CCCN1C(=O)CNC(=O)[C@H](C)NC(=O)[C@H](CC(N)=O)NC(=O)[C@H](CCCCN)NC(=O)[C@H](CC(C)C)NC(=O)[C@H](Cc1c[nH]c2ccccc12)NC(=O)[C@H](CCC(=O)O)NC(=O)[C@@H](NC(=O)[C@H](Cc1ccccc1)NC(=O)[C@H](CC(=O)O)NC(=O)[C@H](CCC(N)=O)NC(=O)[C@H](C)NC(=O)[C@H](CCCNC(=N)N)NC(=O)[C@H](CCCNC(=N)N)NC(=O)[C@H](CO)NC(=O)[C@H](CCC(=O)O)NC(=O)[C@H](CCSC)NC(=O)[C@H](CCC(N)=O)NC(=O)[C@H](CCCCN)NC(=O)[C@H](CO)NC(=O)[C@H](CC(C)C)NC(=O)[C@H](CC(=O)O)NC(=O)[C@H](CO)NC(=O)[C@@H](NC(=O)[C@H](Cc1ccccc1)NC(=O)[C@@H](NC(=O)CNC(=O)[C@H](CCC(N)=O)NC(=O)[C@@H](CO)NC(=O)[C@@H](N)Cc1c[nH]cn1)[C@@H](C)O)[C@@H](C)O)[C@@H](C)CC)C(N)=O)C(=O)O) [SEQ ID NO: (64)] | 0.0219 | 0.067
H[Aib]QGTFTSDLSKQMESRRAQDFIEWLKNGGPSSGAPPPSK([γGlu-Palmitoyl])-NH2 (N-terminus assumed; SMILES CCCCCCCCCCCCCCCC(=O)N[C@@H](CCC(=O)NCCCC[C@H](NC(=O)[C@H](CO)NC(=O)[C@@H]1CCCN1C(=O)[C@@H]1CCCN1C(=O)[C@@H]1CCCN1C(=O)[C@H](C)NC(=O)CNC(=O)[C@H](CO)NC(=O)[C@H](CO)NC(=O)[C@@H]1CCCN1C(=O)CNC(=O)CNC(=O)[C@H](CC(N)=O)NC(=O)[C@H](CCCCN)NC(=O)[C@H](CC(C)C)NC(=O)[C@H](Cc1c[nH]c2ccccc12)NC(=O)[C@H](CCC(=O)O)NC(=O)[C@@H](NC(=O)[C@H](Cc1ccccc1)NC(=O)[C@H](CC(=O)O)NC(=O)[C@H](CCC(N)=O)NC(=O)[C@H](C)NC(=O)[C@H](CCCNC(=N)N)NC(=O)[C@H](CCCNC(=N)N)NC(=O)[C@H](CO)NC(=O)[C@H](CCC(=O)O)NC(=O)[C@H](CCSC)NC(=O)[C@H](CCC(N)=O)NC(=O)[C@H](CCCCN)NC(=O)[C@H](CO)NC(=O)[C@H](CC(C)C)NC(=O)[C@H](CC(=O)O)NC(=O)[C@H](CO)NC(=O)[C@@H](NC(=O)[C@H](Cc1ccccc1)NC(=O)[C@@H](NC(=O)CNC(=O)[C@H](CCC(N)=O)NC(=O)C(C)(C)NC(=O)[C@@H](N)Cc1c[nH]cn1)[C@@H](C)O)[C@@H](C)O)[C@@H](C)CC)C(N)=O)C(=O)O) [SEQ ID NO: (62)] | 0.0063 | 0.13
H[dS]QGTFTSDLSKQMDSRRAQDFIEWLKN[dA]GPSSGAPPPSK([γGlu-Palmitoyl])-NH2 [SEQ ID NO: (68)] | 0.0123 | –
H[Aib]QGTFTSDLSKQMDSRRAQDFIEWLKNGGPSSGAPPPSK([γGlu-Palmitoyl])-NH2 (N-terminus assumed; SMILES CCCCCCCCCCCCCCCC(=O)N[C@@H](CCC(=O)NCCCC[C@H](NC(=O)[C@H](CO)NC(=O)[C@@H]1CCCN1C(=O)[C@@H]1CCCN1C(=O)[C@@H]1CCCN1C(=O)[C@H](C)NC(=O)CNC(=O)[C@H](CO)NC(=O)[C@H](CO)NC(=O)[C@@H]1CCCN1C(=O)CNC(=O)CNC(=O)[C@H](CC(N)=O)NC(=O)[C@H](CCCCN)NC(=O)[C@H](CC(C)C)NC(=O)[C@H](Cc1c[nH]c2ccccc12)NC(=O)[C@H](CCC(=O)O)NC(=O)[C@@H](NC(=O)[C@H](Cc1ccccc1)NC(=O)[C@H](CC(=O)O)NC(=O)[C@H](CCC(N)=O)NC(=O)[C@H](C)NC(=O)[C@H](CCCNC(=N)N)NC(=O)[C@H](CCCNC(=N)N)NC(=O)[C@H](CO)NC(=O)[C@H](CC(=O)O)NC(=O)[C@H](CCSC)NC(=O)[C@H](CCC(N)=O)NC(=O)[C@H](CCCCN)NC(=O)[C@H](CO)NC(=O)[C@H](CC(C)C)NC(=O)[C@H](CC(=O)O)NC(=O)[C@H](CO)NC(=O)[C@@H](NC(=O)[C@H](Cc1ccccc1)NC(=O)[C@@H](NC(=O)CNC(=O)[C@H](CCC(N)=O)NC(=O)C(C)(C)NC(=O)[C@@H](N)Cc1c[nH]cn1)[C@@H](C)O)[C@@H](C)O)[C@@H](C)CC)C(N)=O)C(=O)O) [SEQ ID NO: (59)] | 0.0029 | 0.0409
H[dS]QGTFTSDLSKQMESRRAQDFIEWLKNGGPSSGAPPPSK([γGlu-Palmitoyl])-NH2 (N-terminus assumed; SMILES CCCCCCCCCCCCCCCC(=O)N[C@@H](CCC(=O)NCCCC[C@H](NC(=O)[C@H](CO)NC(=O)[C@@H]1CCCN1C(=O)[C@@H]1CCCN1C(=O)[C@@H]1CCCN1C(=O)[C@H](C)NC(=O)CNC(=O)[C@H](CO)NC(=O)[C@H](CO)NC(=O)[C@@H]1CCCN1C(=O)CNC(=O)CNC(=O)[C@H](CC(N)=O)NC(=O)[C@H](CCCCN)NC(=O)[C@H](CC(C)C)NC(=O)[C@H](Cc1c[nH]c2ccccc12)NC(=O)[C@H](CCC(=O)O)NC(=O)[C@@H](NC(=O)[C@H](Cc1ccccc1)NC(=O)[C@H](CC(=O)O)NC(=O)[C@H](CCC(N)=O)NC(=O)[C@H](C)NC(=O)[C@H](CCCNC(=N)N)NC(=O)[C@H](CCCNC(=N)N)NC(=O)[C@H](CO)NC(=O)[C@H](CCC(=O)O)NC(=O)[C@H](CCSC)NC(=O)[C@H](CCC(N)=O)NC(=O)[C@H](CCCCN)NC(=O)[C@H](CO)NC(=O)[C@H](CC(C)C)NC(=O)[C@H](CC(=O)O)NC(=O)[C@H](CO)NC(=O)[C@@H](NC(=O)[C@H](Cc1ccccc1)NC(=O)[C@@H](NC(=O)CNC(=O)[C@H](CCC(N)=O)NC(=O)[C@@H](CO)NC(=O)[C@@H](N)Cc1c[nH]cn1)[C@@H](C)O)[C@@H](C)O)[C@@H](C)CC)C(N)=O)C(=O)O) [SEQ ID NO: (61)] | 0.0042 | 0.0304
HSQGTFTSDLSKQMDSRRAQDFIEWLKNGGPSSGAPPPK([γGlu-Palmitoyl])-NH2 [SEQ ID NO: (6)] | 0.0031 | –
